Laboratory results taken from US20220204580A1 (AstraZeneca / MedImmune, published 2022).
Numbered stars: 1 amine (or outer) side, 2 acyl side, 3 side chain; on linkers, the order of the positions; unused ones are H or OH. Bridge positions count the residues as written; N and C are the ends. Square brackets hold non-standard residues; d marks the D form. Side chains are listed from the residue outwards. Ends that are not written are not given here. * marks the point of attachment. C18 diacid = O=C(O)CCCCCCCCCCCCCCCCC(=O)*; γGlu = O=C(O)[C@H](CCC(=O)[*:2])N[*:1]; Aib = CC(C)(N)C(=O)O

T1: human amylin receptor (calcitonin receptor co-expressed with receptor activity modifying protein, RAMP3) (human, UniProt P30988 25-474; O60896 24-148)
T1 sequence (looked up) 1: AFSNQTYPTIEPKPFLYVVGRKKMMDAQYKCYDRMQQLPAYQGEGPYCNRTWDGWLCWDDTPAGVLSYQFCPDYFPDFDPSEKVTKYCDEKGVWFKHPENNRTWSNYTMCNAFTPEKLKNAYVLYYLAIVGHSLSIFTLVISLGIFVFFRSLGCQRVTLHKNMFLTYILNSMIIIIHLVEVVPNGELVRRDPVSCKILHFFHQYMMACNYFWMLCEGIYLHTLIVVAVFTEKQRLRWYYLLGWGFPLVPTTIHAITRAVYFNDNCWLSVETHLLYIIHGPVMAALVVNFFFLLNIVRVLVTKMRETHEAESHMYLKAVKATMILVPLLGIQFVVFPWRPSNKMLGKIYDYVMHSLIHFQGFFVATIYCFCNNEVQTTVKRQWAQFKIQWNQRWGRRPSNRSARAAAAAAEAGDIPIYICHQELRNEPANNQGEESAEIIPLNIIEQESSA
T1 sequence (looked up) 2: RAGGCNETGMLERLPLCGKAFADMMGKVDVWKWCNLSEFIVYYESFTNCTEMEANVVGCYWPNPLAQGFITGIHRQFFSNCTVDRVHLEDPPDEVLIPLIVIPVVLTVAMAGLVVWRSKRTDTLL

T2: human calcitonin receptor (human, UniProt P30988 25-474)
T2 sequence (looked up): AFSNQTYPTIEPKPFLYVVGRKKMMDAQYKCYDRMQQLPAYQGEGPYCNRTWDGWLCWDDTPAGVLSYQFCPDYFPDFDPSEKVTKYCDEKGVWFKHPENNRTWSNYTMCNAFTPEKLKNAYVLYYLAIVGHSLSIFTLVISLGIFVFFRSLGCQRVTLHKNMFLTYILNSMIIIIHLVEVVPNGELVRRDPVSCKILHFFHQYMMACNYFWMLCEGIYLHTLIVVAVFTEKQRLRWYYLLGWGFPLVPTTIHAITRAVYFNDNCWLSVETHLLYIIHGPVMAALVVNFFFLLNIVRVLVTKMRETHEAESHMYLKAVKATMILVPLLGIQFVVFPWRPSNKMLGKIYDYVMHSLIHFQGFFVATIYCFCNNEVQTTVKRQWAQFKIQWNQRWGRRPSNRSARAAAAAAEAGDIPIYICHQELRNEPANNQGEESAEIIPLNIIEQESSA


How the values were obtained:
[1] = target: T1, human amylin receptor (calcitonin …); assay: cell-based or functional assay
[2] = target: T2, human calcitonin receptor; assay: cell-based or functional assay

| Binder | EC50 (cAMP production) [1] [nM] | Ratio (EC50 hCTR / EC50 hAMYR3) [1] | EC50 (cAMP production) [2] [nM] |
| --- | --- | --- | --- |
| K([γGlu-C18 diacid])KCNTATCATQRLANFL[Aib]HSSNNFGPILPPTNVGHNTY-NH2 (disulfide 3-8; N-terminus assumed; SMILES CC[C@H](C)[C@H](NC(=O)[C@@H]1CCCN1C(=O)CNC(=O)[C@H](Cc1ccccc1)NC(=O)[C@H](CC(N)=O)NC(=O)[C@H](CC(N)=O)NC(=O)[C@H](CO)NC(=O)[C@H](CO)NC(=O)[C@H](Cc1c[nH]cn1)NC(=O)C(C)(C)NC(=O)[C@H](CC(C)C)NC(=O)[C@H](Cc1ccccc1)NC(=O)[C@H](CC(N)=O)NC(=O)[C@H](C)NC(=O)[C@H](CC(C)C)NC(=O)[C@H](CCCNC(=N)N)NC(=O)[C@H](CCC(N)=O)NC(=O)[C@@H](NC(=O)[C@H](C)NC(=O)[C@@H]1CSSC[C@H](NC(=O)[C@H](CCCCN)NC(=O)[C@@H](N)CCCCNC(=O)CC[C@H](NC(=O)CCCCCCCCCCCCCCCCC(=O)O)C(=O)O)C(=O)N[C@@H](CC(N)=O)C(=O)N[C@@H]([C@@H](C)O)C(=O)N[C@@H](C)C(=O)N[C@@H]([C@@H](C)O)C(=O)N1)[C@@H](C)O)C(=O)N[C@@H](CC(C)C)C(=O)N1CCC[C@H]1C(=O)N1CCC[C@H]1C(=O)N[C@H](C(=O)N[C@@H](CC(N)=O)C(=O)N[C@H](C(=O)NCC(=O)N[C@@H](Cc1c[nH]cn1)C(=O)N[C@@H](CC(N)=O)C(=O)N[C@H](C(=O)N[C@@H](Cc1ccc(O)cc1)C(N)=O)[C@@H](C)O)C(C)C)[C@@H](C)O) [Peptide 145 (SEQ ID NO: 145)] | 0.417 | 4.5 | 1.88 |
| K([γGlu-C18 diacid])KCNTATCATQRLANFL[Aib]HSSNNFGPILPPTHVGSETY-NH2 (disulfide 3-8; N-terminus assumed; SMILES CC[C@H](C)[C@H](NC(=O)[C@@H]1CCCN1C(=O)CNC(=O)[C@H](Cc1ccccc1)NC(=O)[C@H](CC(N)=O)NC(=O)[C@H](CC(N)=O)NC(=O)[C@H](CO)NC(=O)[C@H](CO)NC(=O)[C@H](Cc1c[nH]cn1)NC(=O)C(C)(C)NC(=O)[C@H](CC(C)C)NC(=O)[C@H](Cc1ccccc1)NC(=O)[C@H](CC(N)=O)NC(=O)[C@H](C)NC(=O)[C@H](CC(C)C)NC(=O)[C@H](CCCNC(=N)N)NC(=O)[C@H](CCC(N)=O)NC(=O)[C@@H](NC(=O)[C@H](C)NC(=O)[C@@H]1CSSC[C@H](NC(=O)[C@H](CCCCN)NC(=O)[C@@H](N)CCCCNC(=O)CC[C@H](NC(=O)CCCCCCCCCCCCCCCCC(=O)O)C(=O)O)C(=O)N[C@@H](CC(N)=O)C(=O)N[C@@H]([C@@H](C)O)C(=O)N[C@@H](C)C(=O)N[C@@H]([C@@H](C)O)C(=O)N1)[C@@H](C)O)C(=O)N[C@@H](CC(C)C)C(=O)N1CCC[C@H]1C(=O)N1CCC[C@H]1C(=O)N[C@H](C(=O)N[C@@H](Cc1c[nH]cn1)C(=O)N[C@H](C(=O)NCC(=O)N[C@@H](CO)C(=O)N[C@@H](CCC(=O)O)C(=O)N[C@H](C(=O)N[C@@H](Cc1ccc(O)cc1)C(N)=O)[C@@H](C)O)C(C)C)[C@@H](C)O) [Peptide 146 (SEQ ID NO: 146)] | 2.53 | 1.9 | 4.87 |
